Test results reported in article PMC2133148 (The Journal of Cell Biology, 1999).
No end group written: not given here.

Legend:
Test in all cases: two-hybrid
[1] = molecular target: PS2-loop B (LexA fusion bait) (human, UniProt P49810 270-319)
[2] = molecular target: PS1-loop C T281P (LexA fusion bait) (human, UniProt P49768 264-294, T281P)
[3] = molecular target: PS1-loop C T291A (LexA fusion bait) (human, UniProt P49768 264-294, T291A)
[4] = molecular target: T1, PS2-loop D (LexA fusion bait) (human, UniProt P49810 301-319, also: LexA fusion bait)
T1 chain (looked up): TVGMAKLDPSSQGALQLPY

[5] = molecular target: PS1-loop C (T281P, T291A) (LexA fusion bait) (human, UniProt P49768 264-294, T281P | T291A)
[6] = molecular target: PS2-loop C (LexA fusion bait) (human, UniProt P49810 270-300)
[7] = molecular target: PS1-loop C (LexA fusion bait) (human, UniProt P49768 264-294)
[8] = molecular target: PS1-loop C (T281P, L282I) (LexA fusion bait) (human, UniProt P49768 264-294, T281P | L282I)

fold increase in β-galactosidase activity over the lamin B control [1]: 8.5 fold | interaction relative to PS2-loop C [2]: ~0.5 fold of the PS2 level | interaction relative to PS2-loop C [3]: ~0.33 fold of the PS2 level | fold increase in β-galactosidase activity over the lamin B control [4]: 2.2 fold | interaction relative to PS2-loop C [5]: ~2 fold of the wild-type PS2-loop bait | fold increase in β-galactosidase activity over the lamin B control [6]: 74 fold | fold increase in β-galactosidase activity over the lamin B control [7]: 5.8 fold | interaction relative to PS1-loop C T281P [8]: 1.7 fold of T281P alone
B1: calmyrin (clone 7, full-length cDNA in pJG4-5) (natural protein, human, UniProt Q99828 1-191, looked up)
chain: MGGSGSRLSKELLAEYQDLTFLTKQEILLAHRRFCELLPQEQRSVESSLRAQVPFEQILSLPELKANPFKERICRVFSTSPAKDSLSFEDFLDLLSVFSDTATPDIKSHYAFRIFDFDDDGTLNREDLSRLVNCLTGEGEDTRLSASEMKQLIDNILEESDIDRDGTINLSEFQHVISRSPDFASSFKIVL
